How the values were obtained:
[1] = molecular target: recombinant human Nectin-1 extracellular domain (human) (UniProt Q15223); assay: cell-based or functional assay
[2] = molecular target: full-length Nectin-4 overexpressed on NIH:OVCAR5-N4-over cells, Q96NY8; assay: cell-based or functional assay
[3] = molecular target: T1, recombinant human Nectin-1 extracellular domain (human, UniProt Q15223 31-355); assay: cell-based or functional assay
T1 sequence (looked up): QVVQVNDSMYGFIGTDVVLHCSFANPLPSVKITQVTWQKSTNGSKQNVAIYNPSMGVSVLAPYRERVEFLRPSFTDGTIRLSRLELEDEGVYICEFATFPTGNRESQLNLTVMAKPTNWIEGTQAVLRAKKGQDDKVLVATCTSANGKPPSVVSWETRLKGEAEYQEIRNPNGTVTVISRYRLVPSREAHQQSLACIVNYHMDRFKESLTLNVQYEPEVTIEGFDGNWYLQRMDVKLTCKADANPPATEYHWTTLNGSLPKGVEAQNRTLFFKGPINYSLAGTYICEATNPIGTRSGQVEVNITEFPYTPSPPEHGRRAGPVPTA

[4] = molecular target: T2, Nectin-4 natively expressed on NIH:OVCAR5 parental cells (human, UniProt Q96NY8 32-510); assay: cell adhesion assay, NIH:OVCAR5 parental cells on coated microtiter plates
T2 construct: whole, on cells; The cells also express Nectin-1; also called NIH:OVCAR-5 cells
T2 sequence (looked up): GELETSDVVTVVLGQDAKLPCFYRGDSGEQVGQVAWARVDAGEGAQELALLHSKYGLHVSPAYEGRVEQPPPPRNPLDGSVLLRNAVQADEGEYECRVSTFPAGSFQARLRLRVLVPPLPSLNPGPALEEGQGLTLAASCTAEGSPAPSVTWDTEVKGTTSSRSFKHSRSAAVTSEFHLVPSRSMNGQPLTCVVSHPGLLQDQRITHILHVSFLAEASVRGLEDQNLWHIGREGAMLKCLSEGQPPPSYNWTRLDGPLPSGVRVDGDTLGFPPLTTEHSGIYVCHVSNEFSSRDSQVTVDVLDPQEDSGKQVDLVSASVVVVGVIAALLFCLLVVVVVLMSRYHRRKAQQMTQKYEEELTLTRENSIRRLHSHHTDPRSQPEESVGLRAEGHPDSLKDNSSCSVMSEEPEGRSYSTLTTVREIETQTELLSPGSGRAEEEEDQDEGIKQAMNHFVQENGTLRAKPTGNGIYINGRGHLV
Procedure: Black, clear-bottom 96-well microtiter plates (Corning, Imported Costar, Corning, N.Y.) were coated with recombinant human Nectin-1 extracellular domain (R&D Systems), recombinant human Nectin-4 extracellular domain (R&D Systems), mouse laminin (Invitrogen™), or bovine serum albumin (BSA; Prohumin Diagnostic Grade, MilliPore) diluted in PBS. Covered plates were incubated overnight at 37° C. in a humidified incubator. After washing with PBS plus Ca²⁺/Mg²⁺ containing 2 mg/ml ovalbumin (Sigma-Aldrich), the plates were blocked for 1 h at 37° C. with 1% BSA in PBS without Ca²⁺/Mg²⁺. Confluent monolayers of NIH:OVCAR5 cells or NIH:OVCAR5-N4-over cells were detached with Accutase, and then filtered through a 40 μm cell strainer (BD Biosciences, San Jose, Calif.) to remove cell aggregates. The single cells were stained with CellTracker Green CMFDA (5-chlorornethylfluorescein diacetate; Invitrogen™) according to the manufacturer's protocol. After washing the plate, 30,000 cells were added to each well in 50 μl of RPMI 1640 media containing 2 mg/ml ovalbumin and allowed to adhere for 15-60 min at 37° C. Plates were vigorously washed four times and read in a BioTek Synergy fluorescent microplate reader (BioTek, Winooski, Va.). Experiments were conducted in triplicate. […]

Molecule	inhibition of adhesion of NIH:OVCAR5-N4-over cells to Nectin-1 [2] [%]	inhibition of adhesion of NIH:OVCAR5-N4-over cells to Nectin-1 [3]	further results
mouse monoclonal antibody against human Nectin-1, R&D Systems MAB2880, clone #610835	–	–	inhibition of cell adhesion to Nectin-1 [1]: 60%
H-NWYLQRMDVKLTCK-NH2 [N1-P20]	> 50	–	inhibition of cell adhesion [2]: 100%
H-VNITEFPYTPSPPEHGRRA-NH2 [N1-P26]	> 50	–	–
H-HSQVVQVNDSMYGF-NH2 [N1-P1]	> 50	–	–
H-ACIVNYHMDRFKES-NH2 [N1-P17]	> 50	–	–
H-QARLRLRVLVPPLP-NH2 [N4-P10]	–	≥ 50 >=50 of the printed range 50-100 %	–
H-QRITHILHVSFLAE-NH2 [N4-P18]	–	≥ 50 >=50 of the printed range 50-100 %	–
H-WTRLDGPLPSGVRV-NH2 [N4-P22]	–	≥ 50 >=50 of the printed range 50-100 %	–
H-TGNGIYINGRGHLV-NH2 [N4-P29]	–	≥ 50 >=50 of the printed range 50-100 %	–
recombinant human Nectin-4 extracellular domain (receptor, UniProt Q96NY8 32-349, looked up, extracellular domain; Bought reagent, coated on microtiter plates; also called recombinant Nectin-4) GELETSDVVTVVLGQDAKLPCFYRGDSGEQVGQVAWARVDAGEGAQELALLHSKYGLHVSPAYEGRVEQPPPPRNPLDGSVLLRNAVQADEGEYECRVSTFPAGSFQARLRLRVLVPPLPSLNPGPALEEGQGLTLAASCTAEGSPAPSVTWDTEVKGTTSSRSFKHSRSAAVTSEFHLVPSRSMNGQPLTCVVSHPGLLQDQRITHILHVSFLAEASVRGLEDQNLWHIGREGAMLKCLSEGQPPPSYNWTRLDGPLPSGVRVDGDTLGFPPLTTEHSGIYVCHVSNEFSSRDSQVTVDVLDPQEDSGKQVDLVSAS	–	–	binding result [4]: no binding (tested: 1 µg/well, up to 1 h)

— patent US20170335404A1 (REGENTS OF THE UNIVERSITY OF MINNESOTA, published 2017)
